Test results reported in publication PMC8764033 (2022).
Values joined by “and” are separate entries in the source; they are usually repeats but may differ in a detail not shown here. Identical values can stand only once. Where no end group is shown, it is not given here. Cy5 = cyanine-5 fluorescent label

T1: WD40 domain of human Cdc20 (aa 162–484), for anisotropy (human, UniProt Q12834 162-484)
T1 chain: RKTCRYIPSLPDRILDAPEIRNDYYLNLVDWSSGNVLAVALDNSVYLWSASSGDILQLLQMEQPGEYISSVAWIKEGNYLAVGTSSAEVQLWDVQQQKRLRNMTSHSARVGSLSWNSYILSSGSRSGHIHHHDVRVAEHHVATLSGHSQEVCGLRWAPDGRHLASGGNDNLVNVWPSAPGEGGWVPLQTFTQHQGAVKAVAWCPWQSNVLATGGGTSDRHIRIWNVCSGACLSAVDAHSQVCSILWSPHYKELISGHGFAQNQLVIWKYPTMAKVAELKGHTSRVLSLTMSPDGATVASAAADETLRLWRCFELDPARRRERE

T2: WD40 domain of Cdh1 from Saccharomyces cerevisiae (aa 241–550), for anisotropy (S. cerevisiae, UniProt P53197 241-550)
T2 chain: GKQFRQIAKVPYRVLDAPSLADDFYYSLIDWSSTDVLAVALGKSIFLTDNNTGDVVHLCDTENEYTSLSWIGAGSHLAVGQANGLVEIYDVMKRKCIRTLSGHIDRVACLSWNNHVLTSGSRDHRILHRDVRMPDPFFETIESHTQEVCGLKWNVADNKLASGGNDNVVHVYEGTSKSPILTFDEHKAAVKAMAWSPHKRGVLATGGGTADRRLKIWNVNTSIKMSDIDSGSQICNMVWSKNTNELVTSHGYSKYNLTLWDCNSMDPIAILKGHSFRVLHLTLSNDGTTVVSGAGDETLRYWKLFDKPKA


Legend:
[1] = target: T1, WD40 domain of human Cdc20 (aa …); assay: FP
[2] = target: T2, WD40 domain of Cdh1 from Saccharomyces …; assay: FP
[3] = target: T2, WD40 domain of Cdh1 from Saccharomyces …; assay: FP; + unlabeled Hsl1 KEN mutant peptide (100 uM)
[4] = target: T2, WD40 domain of Cdh1 from Saccharomyces …; assay: FP; + unlabeled Hsl1 KEN peptide (100 uM)
[5] = target: T2, WD40 domain of Cdh1 from Saccharomyces …; assay: FP; + unlabeled Hsl1 D box peptide (100 uM)
[6] = target: T2, WD40 domain of Cdh1 from Saccharomyces …; assay: FP; + unlabeled Hsl1 D box mutant peptide (100 uM)

| Binder | Kd [2] [µM] | other results |
| --- | --- | --- |
| AQQQGRLPLAAKDNNRSKSFIK-Cy5 [Cy5-labeled ySecurin D box peptide] | > 30.6 |  |
| QDSKPRRALTDVPVNNNPLSQK-Cy5 [Cy5-labeled Clb5 D box peptide] | > 30.6 |  |

Second part, led by results:

| Kd [2] [µM] | Binder | other results |
| --- | --- | --- |
| 2.9 | EQKPKRAALSDITNSFNKMNK-Cy5 [Cy5-labeled Hsl1 D box peptide] | Kd [1]: 2.5 µM; Kd [3]: 2.9 µM; Kd [4]: 1.1 µM and 1.2 µM |
| > 30.6 | EQKPKAAAASDITASFNKMNK-Cy5 [Cy5-labeled Hsl1 D box mutant peptide] |  |
| 22 | GVSTNKENEGPEYPTKIEK-Cy5 [Cy5-labeled Hsl1 KEN peptide] | Kd [5]: 3.4 µM; Kd [6]: 16 µM and 11 µM |
